Source: PMC9126950
Values joined by “and” are separate entries in the source; they are usually repeats but may differ in a detail not shown here. Equal entries are not always repeated.

Molecular target: VHH-72-C13 (llama)
Assay: electrochemical titration (differential pulse voltammetry)

Chain of VHH-72-C13 (llama) (VHH, as listed by the source): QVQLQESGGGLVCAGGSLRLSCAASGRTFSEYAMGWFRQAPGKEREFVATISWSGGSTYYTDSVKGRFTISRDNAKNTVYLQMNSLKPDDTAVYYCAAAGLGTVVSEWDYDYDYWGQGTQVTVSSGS

Substance: SARS-CoV-2 spike receptor binding domain (RBD), recombinant (from UniProt P0DTC2 319-541) (domain or fragment)
- half saturation point (Langmuir isotherm): 3.7 nM and 7.5 nM
